Patent US20210275590A1 (LEGEND BIOTECH IRELAND, published 2021)
Residue numbers refer to the chain shown, from its start. Blank lines part the entries; values can stand above or below the binder they belong to.

Target: T1, Recombinant human CD33 protein (human, UniProt P20138 18-259)
T1 construct: Obtained commercially; also called huCD33
Assay: SPR (BIACORE T200), crude sdAb captured via affinity tag, 100 nM human CD33 as analyte
Protocol: The sdAb proteins in the supernatant were analyzed for their ability to bind to CD33 ECD proteins by ELISA and CD33-overexpressing MV4-11 cell lines by FACS. All binders were sequenced and some were subjected to for further characterization including affinity ranking by surface plasmon resonance (SPR) on a BIACORE® T200 instrument. The experiments were carried out as follows: the crude sdAb proteins were captured through an affinity tag onto the sensorchip. High-concentration (100 nM) of human CD33 flowed over the sensorchip surface, and was allowed to bind the antibody fragments. On-rate (kₒₙ) and off-rate (koff) were roughly calculated based on the association and dissociation of one antigen concentration, and were used to estimate the equilibrium dissociation constant (KD).

T1 sequence (P20138 18-259 limits assumed): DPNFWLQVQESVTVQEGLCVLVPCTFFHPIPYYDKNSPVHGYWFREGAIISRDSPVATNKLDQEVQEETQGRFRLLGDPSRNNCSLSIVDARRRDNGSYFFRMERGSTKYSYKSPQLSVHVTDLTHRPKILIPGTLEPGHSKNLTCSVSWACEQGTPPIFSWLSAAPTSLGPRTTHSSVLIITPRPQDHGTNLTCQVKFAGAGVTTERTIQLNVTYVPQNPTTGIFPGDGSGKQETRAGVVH

binding result: binds
B7: AS60399 sdAb (VHH)
VHH: QVKLEESGGGLVQEGGSLRLSCAASGTIYTDSTIYWYRQAPGKQRELVASITRGGDTKYVDSVKGRFAISSDNAKNTVYLQMNSLKPEDTAVYYCNLYYRTGPSSYYRNDWGQGTQVTVSS
notes: Camel sdAb

binding result: binds
B8: AS59101 sdAb (VHH)
VHH: AVQLVESGGGLVQPGGSLRLSCAVSGIYYSINLMGWYRQAPGKPRELAASITDSGITNYADSVKGRFTISRDNAKNTVHLQMNNLKPEDTAVYYCKPMGVNWGQGIQVTVSS
notes: Camel sdAb

binding result: binds
B9: AS49814 sdAb (VHH)
VHH: QIQLVESGGGSVQAGGSLRLSCVASGYIGGHYYMGWFRQAPGKEREGVAAIDIDSDGRTRYAGSVQGRFTISQDNAKNTLHLQMSSLKPEDTGMYYCAVGVGWVPARLTPQAVSYWGKGTLVTVSS
notes: Camel sdAb

binding result: binds
B10: AS49264 sdAb (VHH)
VHH: EVQLVESGGGSVQAGGSLRLSCAASGYTYSINCMGWFRQAPGKEREGVAVISTGGGRTDYRDSVKGRFTISQDNAKNTVYLQMNSLKPEDTAMYYCAGKTTYPGYGCGLGRSAYNYWGQGTQVTVSS
notes: Camel sdAb

binding result: binds
B11: AS49226 sdAb (VHH)
VHH: EVQLAESGGGSVQAGGSLRLSCAASGVTFSSTSVAWFRQAPGKEREGVAYIYTGDSSTYYADSVKGRFTIAQDNAKNAVYLQMNSLKPEDTAMYYCAADGFLLNHRSYQYWGQGTQVTVSS
notes: Camel sdAb

binding result: binds
B12: AS66873 sdAb (VHH)
VHH: QVQLVESGGGLVQPGGSLRLSCAASGSIFSITAMGWYRQAPGKQRELVATVTSGGSTKYVESVKGRFTISNDNAKNTVYLQMNSLKPEDTAVYYCWADIVARWNSDYNVYDDYWGQGTQVTVSS
notes: Camel sdAb

binding result: binds
B13: AS49902 sdAb (VHH)
VHH: EVQLVESGGGLVQAGGSLRLSCTASGFTFDDYVMGWFRQAPGKEREGVSCISWSGDTTYYADSVKGRFTVSRDNAKNTLYLQMNSLKPEDTAMYYCAADQSLCSLAPPYNYAYWGQGTQVTVSS
notes: Camel sdAb

binding result: binds
B14: AS50502 sdAb (VHH)
VHH: EVQLVESGGGSVQAGGSLRLSCAAPGYTYCTYDMMWYRQALGKEREFVSAVYTDGSTLYADSVKGRFTISQDNAKNTLYLQMNSLKPEDTAMYYCKTETAVTYDKPCDFWGQGTQVTVSS
notes: Camel sdAb

binding result: binds
B15: AS67190 sdAb (VHH)
VHH: QVQLVESGGGLVQAGGSLRLSCAASGNVFRFNIMGWYRQAPGNQRELVASIDDGGDRSYADSVEGRFTISRENGKKIMYLQMNSLKPEDTAVYYCAAGLGTYLNGRVSMATNYWGQGTQVTVSS
notes: Camel sdAb

The remaining lines, values behind:

B1: AS49889 sdAb (VHH)
VHH: EVQLVESGGGSVQAGGSLRLSCVASGYTWCRYDMSWYRQAPGKEREFVSGFDNDGTTSYADSVKGRFTISQDNDKNTVYLQMNSLKPEDTAMYYCKEDRSRGSLDGRVCPLSYDNWGQGTQVTVSS
notes: Camel sdAb
binding result: binds

B2: AS49175 sdAb (VHH)
VHH: EVQLAESGGGLVQAGGSLRLSCTASGFTFDDYVMGWFRQAPGKEREGVSCISWSGDTTYYADSVKGRFTASRDNAKNTLYLQMNSLKPEDTAMYYCAADQGKCSLASAEPDDMDYWGRGTLVTVSS
notes: Camel sdAb
binding result: binds

B3: AS50073 sdAb (VHH)
VHH: B2 VHH with E1Q, A5V, D31N, S52G, D56G, T57S, A70I, A106G, E109G, P110A
notes: Camel sdAb
binding result: binds

B4: AS67147 sdAb (VHH)
VHH: EVQLVESGGGLVQAGGSLRLSCAASGDTFSFAAMGWYRQAPGKQRELVASISFSGGESTVYANSVRGRFTISGDNAKNRVSLEMNNLKPEDTAVYYCTAKRGPYLPGPEYWGQGTQVTVSS
notes: Camel sdAb
binding result: binds

B5: AS49873 sdAb (VHH)
VHH: EVQLVESGGGSVQAGGSLRLSCVASGYTYGINCMGWFRQAPGKEREGIAAISTGGGTTGVADSVKGRFTISQDNAKNTVYLQMNSLKPEDTAMYYCAARSTYSGYACVYSEVNGYNYRGQGTQVTVSS
notes: Camel sdAb
binding result: binds

B6: AS58930 sdAb (VHH)
VHH: AVQLVESGGGLVQAGGSLRLSCTASGSILRTYEMGWYRQAPGSQRELVASITSDGDTNYVDSVKGRFTISRDNGKNMVYLQMNSLKPDDTAVYYCNAVILSPSYSMRTSHWGQGTQVTVSS
notes: Camel sdAb; also called AS58930C
binding result: binds
